Entries after “also recorded” stand apart in the source; their conditions may differ.
Assays:
[1] = test system: 12 week human fetal distal epithelial lung buds; assay: Isolated human fetal lung bud culture in Matrigel: growth/expansion; assay type: cell-based; settings: FGF10 500 ng/mL
Text: All research utilizing human fetal tissue was approved by the University of Michigan institutional review board. Normal human fetal lungs were obtained from the University of Washington Laboratory of Developmental Biology, and epithelial lung buds were dissected as described below. All experiments were repeated using tissues from 3 individual lungs; 84 day post fertilization of unknown gender, 87 day post fertilization male, and 87 day post fertilization of unknown gender. All tissues were shipped in Belzer's solution at 4 degrees Celsius and were processed and in culture within 24 hours of isolation.
(§1) Isolated mouse buds were cultured in 4-6 μl droplets of matrigel, covered with media, and kept at 37 degrees Celsius with 5% Carbon Dioxide. Isolated human fetal lung buds were cultured in 25-50 μl droplets of matrigel, covered with media, and kept at 37 degrees Celsius with 5% Carbon Dioxide.
Distal regions of 12 week fetal lungs were cut into ˜2 mm sections and incubated with dispase, 100% FBS and then 10% FBS as described above, and moved to a sterile petri dish. Mesenchyme was removed by repeated pipetting of distal lung pieces after dispase treatment. Buds were washed with DMEM until mesenchymal cells were no longer visible in the media. Buds were then moved to a 1.5 mL eppendorf tube containing 200 uL of Matrigel, mixed using a p200 pipette, and plated in ˜20 uL droplets in a 24 well tissue culture plate. Plates were placed at 37 degrees Celsius with 5% CO2 for 20 minutes while droplets solidified. 500 uL of media was added to each well containing a droplet. Media was changed every 2-3 days.
All mouse bud, human fetal bud, and hPSC-derived human lung organoids were grown in low-serum basal media (basal media) with added growth factors. […]

[2] = test system: E13.5 mouse distal epithelial lung buds; assay: Isolated E13.5 mouse distal lung bud culture in Matrigel droplet: growth/expansion; assay type: cell-based; settings: FGF10 500 ng/mL (50-fold excess), up to 5 days
Procedure: as §1
Mouse buds were dissected from E13.5 embryos. For experiments using Sox9CreER; Rosa^Tomato/Tomato mice, 50 ug/g of tamoxifen was dissolved in corn oil and given by oral gavage on E12.5, 24 hours prior to dissection. Briefly, in sterile environment, whole lungs were placed in 100% dispase (Corning Cat#354235) on ice for 30 minutes. Lungs were then transferred using a 25 uL wiretrol tool (Drummond Scientific Cat#S5-000-2050) to 100% FBS (Corning Cat#35-010-CV) on ice for 15 minutes, and then transferred to a solution of Dulbecco's Modified Eagle Medium: Nutrient Mixture F12 (DMEM/F12, ThermoFisher SKU#12634-010) with 10% FBS and 1× Pennicillin-Streptomycin (ThermoFisher Cat#15140122) on ice. To dissect buds, a single lung or lung lobe was transferred by wiretrol within a droplet of media to a 100 mm sterile petri dish. Under a dissecting microscope, the mesenchyme was carefully removed and epithelial bud tips were torn away from the bronchial tree using tungsten needles (Point Technologies, Inc.). Care was taken to remove the trachea and any connective tissue from dissected lungs. Isolated bud tips were picked up using a p20 pipette and added to an eppendorf tube with cold Matrigel (Corning Ref#354248) on ice. The buds were picked up in a p20 pipette with 4-6 uL of Matrigel and plated on a 24-well tissue culture well (ThermoFisher Cat#142475). The plate was moved to a tissue culture incubator and incubated for 5 minutes at 37 degrees Celsius and 5% CO2 to allow the Matrigel droplet to solidify. 500 uL of media was then added to the dish in a laminar flow hood. Media was changed every 2-3 days.
All mouse bud, human fetal bud, and hPSC-derived human lung organoids were grown in low-serum basal media (basal media) with added growth factors. Basal media consisted of Dulbecco's Modified Eagle Medium: Nutrient Mixture F12 (DMEM/F12, ThermoFisher SKU#12634-010) supplemented with 1× N2 supplement (ThermoFisher Catalog#17502048) and […] B27 supplement (ThermoFisher Catalog#17504044), along with 2 mM Glutamax (ThermoFisher Catalog#35050061), 1× Pennicillin-Streptomycin (ThermoFisher Cat#15140122) and 0.05% Bovine Serum Albumin (BSA; Sigma product# A9647). BSA was weighed and dissolved in DMEM F/12 media before being passed through a SteriFlip 0.22 uM filter (Millipore Item# EW-29969-24) and being added to basal media. Media was stored at 4 degrees Celsius for up to 1 month. On the day of use, basal media was aliquoted and 50 ug/mL Ascorbic acid and 0.4 uM Monothioglycerol was added. […]

## C[C@@H](N)[C@H]1CC[C@H](C(=O)Nc2ccncc2)CC1 [Y27632, reference compound]
[1]; Y27632 10 uM
  Tissue expansion / cyst formation of bud tips: in combination with FGF10, but not alone, promoted growth of buds into larger cyst-like structures; also recorded: did not lead to tissue expansion

B1: Recombinant Human Fibroblast Growth Factor 10 (protein, UniProt O15520 38-208, looked up)
Fibroblast growth factor 10: QALGQDMVSPEATNSSSSSFSSPSSAGRHVRSYNHLQGDVRWRKLFSFTKYFLKIEKNGKVSGTKKENCPYSILEITSVEIGVVAVKAINSNYYLAMNKKGKLYGSKEFNNDCKLKERIEENGYNTYASFNWQHNGRQMYVALNGKGAPRRGQKTRRKNTSAHFLPMVVHS
[2]
  Bud growth: modest growth of buds
[1]; compared to basal media
  Growth of human fetal lung buds: only modest growth; also recorded: expansion of the tissue was not robust

From patent US11857697B2, “Compositions and methods for obtaining 3-dimensional lung-like epithelium and related uses thereof” (THE REGENTS OF THE UNIVERSITY OF MICHIGAN, priority 2017, dated 2024)
